Our source for the fold reduction in potency (EC50 of STAT4 phosphorylation) relative to WT IL-12-Fc XENP27201 values is US20230027540A1.

For this assay, the target named is IL-12 receptor complex composed of IL-12 receptor β1 (IL-12Rβ1) and IL-12 receptor β2 (IL-12Rβ2) (human) (UniProt P42701). As to the kind of experiment: cell-based or functional assay.
Sequence of IL-12 receptor complex composed of IL-12 receptor β1 (IL-12Rβ1) and IL-12 receptor β2 (IL-12Rβ2) (human) (Q99665 24-862, chain 2 of 2, other chains not shown): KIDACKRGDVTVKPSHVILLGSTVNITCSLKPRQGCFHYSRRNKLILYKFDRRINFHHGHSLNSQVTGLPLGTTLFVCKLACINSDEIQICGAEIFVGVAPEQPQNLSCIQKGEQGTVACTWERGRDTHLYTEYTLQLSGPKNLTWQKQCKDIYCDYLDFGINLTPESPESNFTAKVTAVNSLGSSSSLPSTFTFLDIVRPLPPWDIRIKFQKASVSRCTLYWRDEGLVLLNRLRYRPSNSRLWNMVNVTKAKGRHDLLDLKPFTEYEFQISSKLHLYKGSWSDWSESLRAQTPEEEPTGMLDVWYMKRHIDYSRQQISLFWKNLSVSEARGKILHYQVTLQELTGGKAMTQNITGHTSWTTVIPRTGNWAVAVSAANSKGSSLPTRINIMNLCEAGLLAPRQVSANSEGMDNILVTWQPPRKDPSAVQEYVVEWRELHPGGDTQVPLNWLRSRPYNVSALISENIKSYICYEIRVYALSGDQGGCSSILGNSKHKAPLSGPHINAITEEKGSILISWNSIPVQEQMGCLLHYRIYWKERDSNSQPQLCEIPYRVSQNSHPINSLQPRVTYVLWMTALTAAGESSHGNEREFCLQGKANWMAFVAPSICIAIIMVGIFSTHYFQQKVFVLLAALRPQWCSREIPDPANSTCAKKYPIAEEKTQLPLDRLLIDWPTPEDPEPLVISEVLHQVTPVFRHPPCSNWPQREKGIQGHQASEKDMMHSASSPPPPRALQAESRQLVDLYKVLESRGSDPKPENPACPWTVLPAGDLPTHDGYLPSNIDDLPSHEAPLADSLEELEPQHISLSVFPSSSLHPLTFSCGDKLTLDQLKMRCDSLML
For the substance “IL-12-Fc fusion comprising IL-12p35(E153Q)”, the fold reduction in potency (EC50 of STAT4 phosphorylation) relative to WT IL-12-Fc XENP27201 was > 2 fold. Then “IL-12-Fc fusion comprising IL-12p40(E235Q)”, with > 2 fold; and “IL-12-Fc fusion comprising IL-12p35(D55Q/N151D)”, with 2 fold.
